Assay results from CN111018978A (DONGGUAN PENGZHI BIOTECHNOLOGY CO LTD, dated 2020).

Target: T1, 人心肌肌钙蛋白I (cTnI) (human, UniProt P19429 1-210, limits assumed)
T1 construct: Both are treated here as one molecule; also called cTnI蛋白; cTnI质控品重组蛋白
Assay: BLI (AMC sensor), antibody captured, cTnI recombinant protein in solution

T1 sequence (P19429 whole entry): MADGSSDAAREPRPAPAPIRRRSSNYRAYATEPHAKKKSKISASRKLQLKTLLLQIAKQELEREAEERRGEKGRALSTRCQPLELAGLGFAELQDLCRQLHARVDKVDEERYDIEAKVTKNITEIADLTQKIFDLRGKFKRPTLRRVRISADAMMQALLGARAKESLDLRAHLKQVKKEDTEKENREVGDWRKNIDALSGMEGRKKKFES

- Kd: 65.5 nM
- koff: 0.00278 s⁻¹
- kon: 42500 M⁻¹ s⁻¹
B1: Anti-cTnI 6E3 重组抗体 (WT) (antibody, mouse IgG1, kappa, V domains shown)
VH: EVQLQQSGPEVVKPGASVKISCKASGFIFSGQTMNWVKQSGEKNLEWIGLLNPSDNTTYNNKFKGKATLTVDKSSNTAYMQLLSLTSEDSAVYYCSSFGSWAQGTLVTVSA
VL: DIVLTQSPASLAVSLGQRATISCKASNSIDYEGDSYMNWYQQKPGQSPKLLIFVASLVDSGIPARFSASGSGTDFTLNIHPVEEEDAATYYCQQTYEGPWTFGGGTKLEIKR
notes: also called 样品1的抗体; Anti-cTnI 6E3单克隆抗体
